# Reference: the DeepSol protein solubility set
# Experiment: soluble on expression in E. coli; label from the status in PepcDB or PDB records
row,Sequence,soluble on expression in E. coli
1,MTVFSGVNKIEFEGTFEGIGKDVVMSQMIRALQKHFPSIRDKNYEFSLFLHIFQRYVLENTSITHDLVCDKIRLPIIDEVVELDDIKNYGLLEGKLLSKLAILKLTGKANPIIGKESPLFEVKNGMSSLDVIVRQTQNLNVRYNSDVPLIFMTSLETESQVSNFLEEHYSSSKVRWKTVVQSSFPQIDKDRLLPIDLQINSHENDFWYPCGTGNLTDTLYFSGELDKLIAQGKEILFVSNVDNLGATGDLNILNFIINEKIEYLVEVVERTANVSNTGVLATYKGKLRSVYYNCLSNESASTCRIVNTNNIWIDLKKLKVLIESNSLNLPIHSSESKITHKNEEIECLQFKTQLVDCIAFFPNSRVLKVSRDRFLPLRTCKDLFLLKSTLYDLDSNGTFNLYPLKFGLLPSIDLGDEFATYETFKIGVPDIPNILELEHLTVMGNVFFGRNITLKGTVIIICDENDVITVPDGSILENVTIWHKSQLEDMNGY,not soluble
2,MTVIQNIPNSLCKGLNTFSKNYLQNCKRCLTFFYELCGIICKKIEIMKGYERATKEEINDRLRIEENCHAQVERIIYIRHLCNLNLEEAADVTNLSISTLSRYENEVTKCSVQSLITIYYHYQKYLYEQHIPFDKNLFLIDMNSFHN,not soluble
3,MTVIQWFPGHMAKAKREVQEKLKLIDVAFELLDARVPMSSRNPMIDEILGQKPRLILLNKADMADEAVTEQWIRYFHDQGRLALPIDAQSGTGVRQIAAAAKEMVKDKFEKMRAKGIKNPRPVRALIVGIPNVGKSTLINRLAGRHIAKTGDKPGVTKAQQWIKVGKEMELLDTPGILWPKFEDEDVGYKLAVTGAIKDEILNLQDVAVYALRFLSTHYPNRLAERYGLDDIPDDIVALFDAIGRQRGCLTSGGAVDYDKVADIVLYDIRTEKLGRLSFETPASRT,not soluble
4,MTVQIPKLLFLHGFLQNGKVFSEKSSGIRKLLKKANVQCDYIDAPVLLEKKDLPFEMDDEKWQATLDADVNRAWFYHSEISHELDISEGLKSVVDHIKANGPYDGIVGFSQGAALSSIITNKISELVPDHPQFKVSVVISGYSFTEPDPEHPGELRITEKFRDSFAVKPDMKTKMIFIYGASDQAVPSVRSKYLYDIYLKAQNGNKEKVLAYEHPGGHMVPNKKDIIRPIVEQITSSLQEASE,soluble
5,MTVSPIDPVKLEKLAEVAIKVGLQLQKDQDLVITAPLAALPLVRLLTKHAYIAGGGLVTTFYSDEETTLSRYRHASDANFDRASGWLYEGMAKAYANGAARLAIAGDNPMLLAEEDPAKVARANKANSTAYKPALEKISNFDINWNIISYPNPSWAKQVFPGLTEDEAVRKLADAIFAASRVDVADPVAAWAQHNANLAKRSAWLNGERFSALHFTGPGTDVKIGLADGHEWHGGASMAKNGVTCNPNIPTEEVFTTPHALRVDGYVSSTKPLSHQGTLIDDIQVKFEAGRIVEAKASKGEAVLNKVLDTDEGARRLGEVALVPHSSPISASGILFYNTLFDENASCHIALGQCYSKCFLDGASLSQDQIKAQGGNSSLIHIDWMIGSNKVDIDGVKPDGSTVPVMRKGEWA,not soluble
6,MTVSSSAWMPRLISQQILSEYVKSLEVEADKVVIPGQNTPVFSWDRDGNGNLSIDTPLLKVRGESLATQADLTTISLTPGPKGELWQTSVERLDIKVDKHISLTFKNGVRID,not soluble
7,MTVSTPEQHEQRASHDASEGKHNVCQGRLAALADAAVSEKLGALPGWQLLDMRLSRAFQCTNFDQSIDFMNRVASIANDINHHPDIAVLDKRSVRVTAWTRKLGYLTDIDFDLAASVEAMYATEFADRPAR,soluble
8,MTVVNEYRPVEVFFGEGAVKKAGEVGRRFGFKALIVTGRKSTKESGALDKLINSLKQNQIEYVVFDEITPNPTDKQVNKGAEIAVNEKVDFIVGIGGGSVLDAAKAISIVSSNEGYAWDYVRYPEGSRLIPFLNRPVITIPTTAGTGSEVNRYSVLTNPMTKEKMVISHSLNYPKVALVDPELTYSMPPRLTALTGFDALMHALESLTNKRENFIAEEYSVKAIELIRKWLPVAFEEPENKEARRYMSYAAMLAGIAIDHLGVALIHAMEHPVSGHYPEVAHAEGLSALAPYITAFNYRGNPEKYALFARLMGEEEKPHKAVDALVKFIERFSLPKTLKELGVEKEKLPRLAEDVYMCARHSFAVNPVEVGMEEVEELYERAYEGRL,soluble
9,MTYETISVRMNRSDRNIRWGFSVRQQADGLIIDRVEAESLSDKAGVKHNDKVDQINGRSTRGLDAASANRLIDDSFNEVRLSLQRFVTSHTTLPWTLNEKDNKMVVEEMKPGFGTGFGSGFGSSNFVNSSFNQNQNNFGSHFGTGSGVNQRNITNTNTSSSNHQSSTFHSSSHQSSGNYGSGGFSPSSHHNIPIRHSPAPPFTTSNSSYNNIKKSTDNTILPGSANYNPNNSSNYNSVPTGFGASSGGYGGSGGFKGHSNGSAIPAQAPPTSYSYNNGATSQPYGAGSGGTPLNQMTFINTSPAPGANGAYGAQCGLSPSKVFYHSPSGRSRNELSPGAAVHHLQYNSPMNLYSSEATAEQLYQQTGAVPEGPVPHDKSPAYLTSETRKLIEEEARGRFQRGKSPSSQSSCFKRISHAVGADH,not soluble
10,MTYLETAAQFYSEVAQTPQVGLCCVQSTPLQLPGLKIPLPMQEMNYGCGTTVHPTELGKQPTVLYVGVGGGLEALQFAYFSRRPGAVIAVEPVAAMREAAARNLEMALTDNPWFDSSFVEIREGDAFNLPVADGSVDIVAQNCLFNIFEPEDLTRALKEAYRVLKPGGRLQMSDPIATSPVPAHLQQDERLRAMCLSGALTYEEYTQRIIDAGFGQIEIRARRPYRLLDSQTYNLETHLLLESLDSVSFKVPMPEDGACIFTGRTAIYAGCDAFFDDKAGHILQRGIPATVCDKTAAKLATVKPKEVIITDSTWHYNGGGCCLEHHHHHH,soluble
11,MTYRELVERQLAVRHADLELGLSRAREQEPFVIHVSDLLDKAGIEYAVRMDKDFQTTFHLEYPITNYDTFKRAVWQTLGAYYCVCNDGDGLEIASNRPDGYAVRIVFGDVPV,not soluble
12,MTYRIVLKSDPEKRFKNIRACKDEPMQMVVRNINNGADYVHPEQDVEVFSVKTANNNDLVCVKCTPDSYSSNPAVAEQVVLFCQPNSSDLGGFLQPNSMNFVTYANVFETDLYAFDYSGYGFSSGTQGEKNVYADVRAVYEKILEMRPDKKIVVMGYSIGTTAAVDLAATNPDRLAGVVLIAPFTSGLRLFSSKPDKPDTCWADSFKSFDKINNIDTRVLICHGDVDEVIPLSHGLALYEKLKNPVPPLIVHGANHHTILSGKYIHVFTRIANFLRNETLVSCRSAEVDSSQQQQQLSSKRTENE,not soluble
13,MVAEVSPKLAASPMKKPFGFRGKMGKWCCCCFPCCRGSGKNNMGAWRDHDDSAFTEPRYHVRREDLGKLHRAAWWGEVPRADLIVMLRGPGINKRDKKKRTALHLACANGNSEVVSLLLDRQCQLHVFDSKKRTALIKAVQCQEDECALMLLQHGTDPNLPDMYGNTALHYAVYNEDKLMAKTLLLYGADIESKNKGGLTPLLLAVHGQKQRMVKFLIKKKANLNALDRFGRTALILAVRCGSASIVSLLLQQNIDVFSQDVFGQTAEDYAVSSHHSIICQLLSDYKENQMPNNSSGNSNPEQDLKLTSEEEPQRLKGSENSQHEKVTQEPDINKDCDREVEEEMQKHGSNNVGLSENLTDGAAAGNGDGGLVPQRKSRKHENQQFPNTEIEEYHRPEKKSNEKNKVKSQIHSVDNLDDITWPSEIASEDYDLLFSNYETFTLLIEQLKMDFNDSASLSKIQDAVISEEHLLELKNSHYEQLTVEVEQMENMVHVLQK,not soluble
14,MVAPETERIRTQIRVYLLVEDLQRQFAAYLGTPTRARGYPPYEGEHALIVEVSPALAIERVIDLALRAVPGVQPGILYVERQFGVLEIHSASLDEVRRAGEAILAGTGNRAEDQLRPRVLFHDIITDITDQHAVILNRNRQASMILPGQSLLVYEMTPALFAAVAANEAERVAPGLTVVDVQMIGAAGRLYIGGSTDEVTVARDHITTVLSAIEGQEH,not soluble
15,MVAQKAYVSTPTLIDYLSRSAIKLLDIHSILLKVREEAMGGEPNLLRQIDSTKKQLDEISHALILEYRKRQENERFLKQILLSISDQLFSLNNGFKETGRLFFQEIRMLQSQMQCFYEGKERQYLLSEQESSYSPSKIDEVIKQLQKAREKLIVESPHLFEKEC,not soluble
16,MVARSEEIVIVEEDTTAKCLMLLSRVGECGGGCGGDERVFRCKTCLKEFSSFQALGGHRASHKKLINSDNPSLLGSLSNKKTKTSHPCPICGVKFPMGQALGGHMRRHRNEKVSGSLVTRSFLPETTTVTALKKFSSGKRVACLDLDLDSMESLVNWKLELGRTISWS,not soluble
